Tests used:
Notch = molecular target: T1, Notch (UniProt P07207 53-2703, limits assumed); assay: confocal immunofluorescence of cells incubated with Wg conditioned medium, anti-Wg antiserum and cy3 secondary antibody
T1 construct: whole, on cells

[1] = molecular target: Drosophila frizzled 2 (Dfz2) (Drosophila), Q9VVX3; assay: confocal immunofluorescence, Dfz2-transfected S2 cells incubated with Wg conditioned medium, anti-Wg antiserum
[2] = molecular target: Drosophila frizzled 2 (Dfz2) (Drosophila), Q9VVX3; assay: confocal immunofluorescence, human 293 cells transiently transfected with Dfz2, pretreated with chlorate and heparatinase

Sequence of Drosophila frizzled 2 (Dfz2) (Drosophila), Q9VVX3 (Q9VVX3 other isoform, or with tags, fused parts or gaps limits assumed): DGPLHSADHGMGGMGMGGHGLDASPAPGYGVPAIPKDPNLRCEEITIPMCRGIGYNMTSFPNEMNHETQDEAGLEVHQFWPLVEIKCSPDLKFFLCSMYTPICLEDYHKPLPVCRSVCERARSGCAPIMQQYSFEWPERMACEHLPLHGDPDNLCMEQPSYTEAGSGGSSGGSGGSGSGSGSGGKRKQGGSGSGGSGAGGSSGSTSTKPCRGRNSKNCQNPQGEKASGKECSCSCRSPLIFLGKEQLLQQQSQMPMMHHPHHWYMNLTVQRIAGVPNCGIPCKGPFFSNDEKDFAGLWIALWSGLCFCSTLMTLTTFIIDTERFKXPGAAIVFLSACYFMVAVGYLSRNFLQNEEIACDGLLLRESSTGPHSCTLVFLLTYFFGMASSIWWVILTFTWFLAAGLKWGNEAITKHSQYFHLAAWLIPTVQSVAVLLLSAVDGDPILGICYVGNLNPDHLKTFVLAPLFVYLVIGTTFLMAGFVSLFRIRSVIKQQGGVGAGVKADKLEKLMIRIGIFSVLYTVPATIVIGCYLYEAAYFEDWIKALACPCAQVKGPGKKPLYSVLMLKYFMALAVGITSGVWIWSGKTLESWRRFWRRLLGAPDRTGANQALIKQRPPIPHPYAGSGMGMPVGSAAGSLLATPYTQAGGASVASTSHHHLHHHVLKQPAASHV
T1 sequence (P07207 53-2703 limits assumed): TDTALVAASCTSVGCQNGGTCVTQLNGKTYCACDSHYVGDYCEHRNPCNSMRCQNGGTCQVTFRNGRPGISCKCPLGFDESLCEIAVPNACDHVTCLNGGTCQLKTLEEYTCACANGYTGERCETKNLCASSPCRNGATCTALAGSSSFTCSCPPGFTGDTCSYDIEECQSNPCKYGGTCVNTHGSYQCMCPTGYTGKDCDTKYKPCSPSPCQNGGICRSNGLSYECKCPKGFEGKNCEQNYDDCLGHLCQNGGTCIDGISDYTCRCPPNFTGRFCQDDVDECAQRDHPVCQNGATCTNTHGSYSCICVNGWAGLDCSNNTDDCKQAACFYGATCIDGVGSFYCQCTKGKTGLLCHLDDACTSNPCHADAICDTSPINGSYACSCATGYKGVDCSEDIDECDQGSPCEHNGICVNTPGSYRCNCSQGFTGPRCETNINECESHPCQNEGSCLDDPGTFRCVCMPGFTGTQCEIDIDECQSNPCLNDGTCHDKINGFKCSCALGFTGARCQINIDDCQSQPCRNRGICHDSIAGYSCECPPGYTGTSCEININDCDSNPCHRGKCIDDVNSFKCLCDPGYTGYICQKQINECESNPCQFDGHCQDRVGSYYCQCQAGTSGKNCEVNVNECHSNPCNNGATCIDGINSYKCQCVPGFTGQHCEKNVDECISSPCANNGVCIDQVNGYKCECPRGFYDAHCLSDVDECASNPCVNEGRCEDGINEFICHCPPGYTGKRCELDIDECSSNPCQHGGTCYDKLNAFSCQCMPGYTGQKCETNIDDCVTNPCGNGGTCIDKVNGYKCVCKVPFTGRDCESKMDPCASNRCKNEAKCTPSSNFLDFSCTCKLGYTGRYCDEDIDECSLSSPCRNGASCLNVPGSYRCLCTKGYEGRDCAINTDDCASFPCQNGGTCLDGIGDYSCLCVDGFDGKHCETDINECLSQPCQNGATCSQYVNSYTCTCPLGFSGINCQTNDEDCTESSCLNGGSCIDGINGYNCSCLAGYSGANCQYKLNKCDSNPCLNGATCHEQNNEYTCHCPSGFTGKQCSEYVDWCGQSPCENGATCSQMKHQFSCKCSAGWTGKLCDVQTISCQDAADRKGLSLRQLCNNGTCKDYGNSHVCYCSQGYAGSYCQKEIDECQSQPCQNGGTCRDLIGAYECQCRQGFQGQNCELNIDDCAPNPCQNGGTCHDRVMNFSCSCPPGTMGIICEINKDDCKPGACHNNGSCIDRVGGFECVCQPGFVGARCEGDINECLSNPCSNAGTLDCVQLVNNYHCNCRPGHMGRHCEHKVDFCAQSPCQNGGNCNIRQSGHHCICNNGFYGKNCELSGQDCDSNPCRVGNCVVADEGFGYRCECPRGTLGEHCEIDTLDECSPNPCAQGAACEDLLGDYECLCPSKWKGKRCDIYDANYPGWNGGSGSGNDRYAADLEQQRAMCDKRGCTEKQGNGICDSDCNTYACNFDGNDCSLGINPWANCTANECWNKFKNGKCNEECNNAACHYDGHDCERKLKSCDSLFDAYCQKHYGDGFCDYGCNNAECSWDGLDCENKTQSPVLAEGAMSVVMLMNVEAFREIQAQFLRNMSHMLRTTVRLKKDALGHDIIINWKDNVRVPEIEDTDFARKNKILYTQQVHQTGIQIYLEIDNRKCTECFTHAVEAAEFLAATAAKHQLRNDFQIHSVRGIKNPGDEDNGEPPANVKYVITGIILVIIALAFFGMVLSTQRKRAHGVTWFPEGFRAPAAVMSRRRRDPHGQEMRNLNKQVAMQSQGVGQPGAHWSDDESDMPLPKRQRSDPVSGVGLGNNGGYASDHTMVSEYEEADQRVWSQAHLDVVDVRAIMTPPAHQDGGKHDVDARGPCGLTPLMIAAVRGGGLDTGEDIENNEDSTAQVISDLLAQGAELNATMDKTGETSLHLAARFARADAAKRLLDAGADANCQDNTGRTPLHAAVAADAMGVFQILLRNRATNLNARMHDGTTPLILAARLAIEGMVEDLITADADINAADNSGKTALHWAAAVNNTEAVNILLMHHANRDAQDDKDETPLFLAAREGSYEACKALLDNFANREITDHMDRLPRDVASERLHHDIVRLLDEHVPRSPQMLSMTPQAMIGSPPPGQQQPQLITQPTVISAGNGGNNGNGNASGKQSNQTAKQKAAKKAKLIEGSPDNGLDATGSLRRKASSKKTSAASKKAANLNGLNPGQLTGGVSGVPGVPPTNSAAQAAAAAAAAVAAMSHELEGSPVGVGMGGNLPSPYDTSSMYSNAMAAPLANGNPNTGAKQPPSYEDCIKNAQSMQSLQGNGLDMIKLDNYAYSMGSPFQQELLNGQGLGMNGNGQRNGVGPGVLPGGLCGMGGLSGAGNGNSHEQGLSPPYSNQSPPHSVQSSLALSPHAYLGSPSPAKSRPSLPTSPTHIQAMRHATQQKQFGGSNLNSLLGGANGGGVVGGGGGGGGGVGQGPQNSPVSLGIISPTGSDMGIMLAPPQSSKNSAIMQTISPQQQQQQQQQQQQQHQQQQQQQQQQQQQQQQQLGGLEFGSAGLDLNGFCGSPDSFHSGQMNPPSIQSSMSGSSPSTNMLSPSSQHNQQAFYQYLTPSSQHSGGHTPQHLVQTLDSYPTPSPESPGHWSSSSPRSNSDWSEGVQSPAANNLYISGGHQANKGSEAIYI

B1: wingless (Wg) protein (ligand, Drosophila, UniProt P09615 18-468, looked up)
chain: GSSLSQVEGKQKSGRGRGSMWWGIAKVGEPNNITPIMYMDPAIHSTLRRKQRRLVRDNPGVLGALVKGANLAISECQHQFRNRRWNCSTRNFSRGKNLFGKIVDRGCRETSFIYAITSAAVTHSIARACSEGTIESCTCDYSHQSRSPQANHQAGSVAGVRDWEWGGCSDNIGFGFKFSREFVDTGERGRNLREKMNLHNNEAGRAHVQAEMRQECKCHGMSGSCTVKTCWMRLANFRVIGDNLKARFDGATRVQVTNSLRATNALAPVSPNAAGSNSVGSNGLIIPQSGLVYGEEEERMLNDHMPDILLENSHPISKIHHPNMPSPNSLPQAGQRGGRNGRRQGRKHNRYHFQLNPHNPEHKPPGSKDLVYLEPSPSFCEKNLRQGILGTHGRQCNETSLGVDGCGLMCCGRGYRRDEVVVVERCACTFHWCCEVKCKLCRTKKVIYTCL
notes: mature; Used as concentrated conditioned medium, not purified; It was detected as bands of about 52 kD, 'the size of the mature Wg protein'; also called soluble Wg protein; metabolically labeled Wg protein
binding result (Notch): no binding
percent of cells stained [1]: 80%
percent of transfected cells positive [2]: 10 to 20%
